Assay results: the domain aggregation screens of Martell et al. (2025)

Test: soluble fraction after stress (log2 fold change); higher = more stays soluble; pooled small domains, quantitative proteomics
Settings: stress: 50 degC
Summary of the method: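 Pooled custom libraries of small protein domains were each held under stress at 50°C. The read-out, high-throughput quantitative proteomics, tracked how much of each protein stayed soluble. This is reported as a base-two log fold change used to indicate aggregation propensity. Higher values mean more protein remains in solution.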

“HMDIDNDIIENILVMGVTKAIAINLSNEFERHRIIANIEYAKEKSKNSEIKNISAFTVEAIRQDYANS” and “HMHRTRNAERTRAAVLKAAAEVLAERGTGASLARIAEVAGVSKSGLLHHFANREQLIVALLED” are within 0.2 log units of each other in “soluble fraction (log2)” value: -1.1 for the first, -0.984 for the second.

“HMQDKLLRKKEVLEMVSITNSTMYRMIGSGQFPRPIRLDNANINSGVRWKLSEINTFIEQRF” and “HMAGLELVVTREQAGRTVKSLLRGELGISTALMGRLKRTGTGLTVNGTRVFTNAVLREGDRLAVDLDAAE” are within 0.2 log units of each other in “soluble fraction (log2)” value: -0.409 for the first, -0.606 for the second.

First: HMNDMPELLSIKEASQWATEYLNKNVTTSNIAYLIQYGRIRKIGNNGSTQVLKDDLVKYYKDQK
Second: HMDRLTISTLGNGLFRVNGAEAEATVYNLSGNVVKVVPADEVIDLSSLAKGVYIIHVDGEAFKVI
The “soluble fraction (log2)” value of the first is higher: -0.139 for the first, -0.86 for the second.

Compared with “HMSDDSTIVELLASSLRRDIAFGTLLPDQKLKLNELRTRYGGSIHSMRETLRILSAEGLVEATAQRGFRVT”, “HMTEEEEFEKGFEILVNLSHFNRFSVYKEDEYVIVRIADYDFNEYFKVKKSDVGRIAEFLNENIT” is lower in “soluble fraction (log2)” value: -0.0813 for the first, -2.4 for the second.

Going from “HMAIDYYQTLINLGYKLQDRGDYWQTSAIHRGGDNPTALQIYKNTGVWKDYVSGGGFKPFKALVEKSD” to “HMQMGLNEAYRVLHVSPDAPWREVQSAYKERMAKSHPDKVSHLGEELQEKAKELTVEINKAYNTIKRYKK”, the “soluble fraction (log2)” value rises from -0.802 to 0.194.

First: HMYPNEFPRKVMSVFESSGLEMFRTIEMLLAIPEYETPLPYGSGVSRSDIFVLAKSAGNLVSITV
Second: HMPLLSPRQLDVLSLAAGGLSDAQIAGRLVLSESTVRVHFHHIIEKLGVTDRAGAIAWYEQSRS
The “soluble fraction (log2)” value of the first is higher: 0.00886 for the first, -1.03 for the second.

Going from “HMKGLDRATNKALLLKHIIDNGSTGTRFSELRQVLPSLTRGSISSLLIELRSEGKIHSIGVTRNARWYPTE” to “HMEELIEMNGVVMEILPDSRYRVTLDNGHKLIAYTGGKMKKNHIRILAGDKVTLELSPYDINNGRITFRHI”, the “soluble fraction (log2)” value falls from -1.07 to -1.28.

“HMQGNGKVATELLKDIIASDNLYINAMRMLVMHYNSKGTNQVEMVKLLHNILDLVPDDEYANEILKSAKKA” and “HMGANAVAAFTARVRTGPSTGYPVRISVPQGRQVRVISGPYGGWYRVSYQGLTGYTYGGLLRQG” are within 0.2 log units of each other in “soluble fraction (log2)” value: -0.327 for the first, -0.408 for the second.

Compared with “HMDIFSSFVAIKNANVRELPTAKSAQVATLSKGSEVTALGKVKGKNWYLVARDGKELGYVFGSLIAEAET”, “HMKYGPSTVATLKVARLGEMGAFLDAETGDTSDDILLHKTQQTAPVKVGDEVEVFLYLDPKRRLTASMRV” is higher in “soluble fraction (log2)” value: -1.29 for the first, -0.107 for the second.

Compared with “HMAIIQSNNIFKSQKEIVDEILVELDIPKDKWNFFHMLISSGYKDEFDTNRIYEIIQTNYNMMDR”, “HMRPLISQTLRIDRGEGDIAGPLGVLAKEYPHLSMGSYPFQKDGIYGAHVVIRGSDPGMVEAAMDKLKAAF” is higher in “soluble fraction (log2)” value: -0.205 for the first, 0.018 for the second.

First: HMRAAEPTTDAQRDRRRRIVLTAMTMLQERGYDEIQMRDVAQQAGVALGTLYRYFPSKEQLFAHVLVE
Second: HMGNFNDMLKYLRVREKMSQAELADKLGVSKSTVGMYELGKREPDFETLEAIADLFNVDMNFLLGK
The “soluble fraction (log2)” value of the first is lower: -0.599 for the first, -0.35 for the second.

Going from “HMKIELSDNEKIIYDLLSSQHVLLSEIKDKAGLSNKAWDKSTKSLRKLGLIAVEKKDDDIYISKL” to “HMPDIFDRGTAHITDAASGVAITFTRTFRIPPEVTMTHKGGTVVAIARLVGSITTGGFTAVLENT”, the “soluble fraction (log2)” value falls from -0.0233 to -0.264.

“HMEDPKLAQLTEQERKILDLIADGLTNRQIAEKMFLAEKTVKNYVSTILAKMGMSNRSEAAAYVARLEAG” and “HMLLTLPEDIITMVRQGTLSAGHARVLAGLESDEMKMTLARQTITNEWSVRQLENAVALMRKS” are within 0.2 log units of each other in “soluble fraction (log2)” value: 0.0787 for the first, -0.0766 for the second.

Compared with “HMADTFVMPDLVYRRYEPVRGYFERGGFHMGAVKFEPYEGISDGTILRQNPLPGHPLRRRDVISLVVAAS”, “HMQGTTTELLIQKSALYEELNDPEKALNAMFDAFEMDSLNVNVLHRIVSLLLDKEENEKAILYNQLIIDH” is higher in “soluble fraction (log2)” value: -2.23 for the first, 0.126 for the second.

Going from “HMGDVKLNAIYNFLKEFSALNGFPPSVREIGAKFGIKSTSTVHYYLEKLKQSGVIQQEENKKRAVVIN” to “HMEIEYFDDEELDAYKGRKSDSYTDEEAAQFAEVLYTMRPSEVKDWTASLTLRGISMPDQIKDEAIMLME”, the “soluble fraction (log2)” value rises from -0.369 to -0.0466.

Compared with “HMQDPTAVISRVLEERKHQPGALLPILHGIQDALGYVPREAVAQIAQALNLSRAEIHGVVSFYHHFR”, “HMPLSDAEKAAAIATQAKERALKLSPEMISYLLRHASRDMRTLSMLVVALDQYTLEQKRPVTLPLLRELLS” is higher in “soluble fraction (log2)” value: -0.547 for the first, -0.098 for the second.

Compared with “HMTPGPYETLKPAPLGSYIEPKIGFATAIEIARKEAVQLGIKTEAGGIWYGGDFPFYNVSFFDPDD”, “HMKYNETEFKNLVAKLYNGEIEIVGKFTGLSYPILVKDKYGIMLSQKANLILNYRPTINIALNKTEYAMN” is higher in “soluble fraction (log2)” value: -0.615 for the first, -0.0487 for the second.

Going from “HMNPNPYIVLGVDKSMPFGEIKKVYQRKRREFHPDSLVAKGLPDELLQKAQDKFIAIQEAYKSIEKNQV” to “HMSQTDTDAKDARQKILALLSDGEWHQKTELLKIDAPKEAVSNAIRYLVLEELISIDHAKVRA”, the “soluble fraction (log2)” value falls from 0.317 to -0.489.

Compared with “HMQLTPAQHAILAYAIEHTGGKIEWFPDNIKGGARTKVLEGLFNKALITRDSTDWFVAAEGYDALGR”, “HMDFSNVNFSQVSDSELDLLMRRASAQGYTQFDLLKIARAQGLTQAEIEKLDKRFKSAETVAYVAENA” is higher in “soluble fraction (log2)” value: -0.549 for the first, 0.0939 for the second.

“HMSQNVSFTVDSGQAGLRLDVFLSQADPAFSRSQIKYAIEEGDVTVNGKEPKVSQHLKDGDIVELHLE” and “HMLSVRNRMSDVLKSLDDGEFHRFESLFNLEEGRLGVVVTFLAMLELAKEMLVEIVQNESLGPIYLKSR” are within 0.2 log units of each other in “soluble fraction (log2)” value: -0.0973 for the first, -0.0774 for the second.

“HMGKSETALELIKRGHRLIADDAVEITRIGSTLSGTAPELIRNYLEVRGVGVIDVEKLFGVGAVQDSTQI” and “HMDGAPVTVIKNGEVDVATTMRVGLSASELMFKLRAAGVDEVQIVHRAVLEQNGQLTIIKYGEE” are within 0.2 log units of each other in “soluble fraction (log2)” value: 0.0401 for the first, 0.0259 for the second.

Compared with “HMVSFAEQASDWLAHFDRLGDVGPDTTLTDLTARDAEFSAWVNEGIHHRVAFLETLAAWHRTER”, “HMHEYSRIYQQQWWDNATGADAYHVIHSARSRAAQDPEAARALEYLEEQFRIRYGVRTEDFLGYLHD” is higher in “soluble fraction (log2)” value: -0.774 for the first, -0.411 for the second.

Compared with “HMEVDDEAIYQGHEPSIRLHRLLKDVGYNSALLPSVVTQIFKDFPGIELAKALPIAMQLLNED”, “HMHVLAVDEALHKLTELNELHAKIVEMRFFSGMTVQEVADELGVSKRKIESEWTMIKAWLRKELN” is lower in “soluble fraction (log2)” value: -0.403 for the first, -0.665 for the second.

“HMESSKLQASIINYLERRPTQKFTAEELFKGLSLEKASVFNELVKELTSLERSHKVEITADDKFKIARPQ” and “HMLANLNKELQNDAALLKQKAQGNSNLLAKIQDVEQQMKQVNTSSASDEAKAKELQTLQRKLTAYKKALA” are within 0.2 log units of each other in “soluble fraction (log2)” value: -0.126 for the first, 0.0101 for the second.

First: HMQSVKTQPLRDWLLAHFDKPYPDDEDKVRLAEASGMTRAQVGNWFINARVRTWRPMVLDLGEEIERESV
Second: HMTAVAAEQQAQDAYRQTAANNLNEIQAKYKLPDSESDDFFTFAYERGFTQEDFIDIGLVDKIMGDYV
The “soluble fraction (log2)” value of the first is lower: -0.649 for the first, 0.0927 for the second.

Going from “HMLKDKLSDKDFDFYKNKIQIQLQGNPTELKELVRRFSSTEEQQILKTIDYMLDNGFLRIDEDNMIYWK” to “HMKSPVKLILRGSIYHIKISAVVNGQRIFVRESSHTTDKREAEQYANKRFAQLVEETEFRTN”, the “soluble fraction (log2)” value falls from -0.00515 to -1.11.

Going from “HMDLLAESLTRREAEVAALAARGLTNRAIAELFGLSVRTAETHLHRAMGKLGANRREDLLLHADRLDPG” to “HMTRHSSVDFAGYILRNKENEPIFGFGKHKGKTVVEVLQREQGYFGWLMEADFPLYTKKVLTAIRLNTLNS”, the “soluble fraction (log2)” value rises from -0.629 to -0.117.

For “HMHRGTPASIIAAAKQYLTGGQTVELYEREGGPWTFRLRTYLSETPYPEKVRASVEALKPAGVVFLYELQS”, the “soluble fraction (log2)” value was -0.207.
